In article PMC11097083 (Molecular & Cellular Proteomics : MCP, 2024):
Changes are numbered by the printed parent chain. In names and notes the source's numbering stands. Blank lines part the entries; values can stand above or below the molecule they belong to.

How the values were obtained:
[1] = target: galectin-4 C-terminal carbohydrate recognition domain (Gal-4C) (human); assay: AUC
[2] = target: galectin-4 C-terminal carbohydrate recognition domain (Gal-4C) (human); assay: cross-linking
cross-linking = target: the molecule itself; assay: cross-linking

stoichiometry N [1]: 2
stoichiometry N [2]: 2
Molecule: galectin-4 C-terminal carbohydrate recognition domain (Gal-4C) (domain or fragment)

B1: galectin-4 (Gal-4), full-length (natural protein, human, UniProt P56470 1-323, looked up)
chain: MAYVPAPGYQPTYNPTLPYYQPIPGGLNVGMSVYIQGVASEHMKRFFVNFVVGQDPGSDVAFHFNPRFDGWDKVVFNTLQGGKWGSEERKRSMPFKKGAAFELVFIVLAEHYKVVVNGNPFYEYGHRLPLQMVTHLQVDGDLQLQSINFIGGQPLRPQGPPMMPPYPGPGHCHQQLNSLPTMEGPPTFNPPVPYFGRLQGGLTARRTIIIKGYVPPTGKSFAINFKVGSSGDIALHINPRMGNGTVVRNSLLNGSWGSEEKKITHNPFGPGQFFDLSIRCGLDRFKVYANGQHLFDFAHRLSAFQRVDTLEIQGDVTLSYVQI
stoichiometry N (cross-linking): 2

B2: Gal-4CM (R240H), C-terminal domain mutant of full-length Gal-4 (natural protein, human, UniProt P56470 1-323, looked up)
chain: B1 chain with R240H
stoichiometry N (cross-linking): 2

B3: Gal-4NM (R67H), N-terminal domain mutant of full-length Gal-4 (natural protein, human, UniProt P56470 1-323, looked up)
chain: B1 chain with R67H
stoichiometry N (cross-linking): 2
